The results in this text go back to patent US20100172835A1 (BURNHAM INSTITUTE FOR MEDICAL RESEARCH, published 2010).

Bridges are numbered along the chain shown (N, C = ends). Where no end group is shown, it is not given here.

Assay [1] concerns the target T1, gC1qR/p32 at the cell surface (human, UniProt Q07021 74-282).
T1 construct: whole, on cells; also called cell surface p32
T1 sequence (looked up): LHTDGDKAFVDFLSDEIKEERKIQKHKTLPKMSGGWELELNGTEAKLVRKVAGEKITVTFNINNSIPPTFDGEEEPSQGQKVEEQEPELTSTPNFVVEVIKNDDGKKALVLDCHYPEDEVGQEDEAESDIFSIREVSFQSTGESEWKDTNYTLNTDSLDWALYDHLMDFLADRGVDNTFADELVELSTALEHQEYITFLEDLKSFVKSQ
The assay is described as follows: LyP-1 phage binding to Raji cells pre-incubated with 40 µg/ml mAb; ligand blocked: LyP-1 phage.

The target of assay [2] is T2, purified gC1qR/p32 protein (human, UniProt Q07021 74-282).
T2 construct: also called purified p32
T2 sequence (looked up): T1 sequence (looked up)
The assay is described as follows: LyP-1 phage binding to wells coated with purified gC1qR/p32 with 20 µg/ml mAb; ligand blocked: LyP-1 phage.

The target of assay [3] is T1, gC1qR/p32 at the cell surface. The experiment in a line: FACS of 10 µM FITC-LyP-1 on MDA-MB-435 S35 cells with p32 siRNA or control siRNA. On the procedure: (§1) 48 hours after transfection, inhibition of p32 expression was checked by immunoblot analysis and immunostaining (upper panels). β-actin was used as a control. […] Cells incubated in the absence of peptide served as negative control. […] A representative experiment out of three is shown. C. […] Insertless phage was used to determine background phage binding.
(§2) MDA-MB-435 cells were transiently transfected with gC1qR/p32-specific or control siRNAs. […] The amount of fluorescence in living cells was analyzed by FACS. Cells incubated in the absence of peptide served as FITC negative control.

For assay [4], the target named is T3, gC1qR/p32 from tumor cell extracts (human, UniProt Q07021 74-282).
T3 construct: mature; From xenograft extracts an additional 75 kD band was also identified as gC1qR/p32; also called gC1q/p32 receptor; p32/p33/gC1qR/HABP1
T3 sequence (looked up): T1 sequence (looked up)
The assay is described as follows: pull-down from MDA-MB-435 extracts, anti-gC1qR/p32 immunoblot.

The next assay deals with αv integrins. The experiment in a line: assay not described in the filing.
Assay [5] has as its target T4, neuropilin-1 by forced expression on M21 cells (Homo sapiens (Human), UniProt O14786 22-923). The experiment in a line: cell-based or functional assay.
In assay [6] the target is T4, neuropilin-1 by forced expression on …. The experiment in a line: CRGDK phage binding to M21 cells transfected with neuropilin-1 cDNA, against untransfected or vector-only cells.
The target of assay [7] is T1, gC1qR/p32 at the cell surface. The assay is described as follows: FACS of FITC-peptide on MDA-MB-435 cells transfected with p32 siRNA or control siRNA. As to the method: as §1, §2
Assay [8] deals with T2, purified gC1qR/p32 protein. The experiment in a line: phage binding to wells coated with purified gC1qR/p32, plaque assay.
In assay [9] the target is T1, gC1qR/p32 at the cell surface. The assay is described as follows: phage binding to C8161 cells transiently transfected with gC1qR/p32 cDNA. On the procedure: as §1, with “A. C8161 cells were transiently transfected with pEGFP together with either empty pcDNA3.1 vector or p32 pcDNA3.1 vector. Transfected cells were sorted for EGFP expression and the sorted populations were used for phage binding assay and immunoblot analysis with anti-p32. […] 48” for “48”

T4 sequence (O14786 22-923 limits assumed, form in doubt): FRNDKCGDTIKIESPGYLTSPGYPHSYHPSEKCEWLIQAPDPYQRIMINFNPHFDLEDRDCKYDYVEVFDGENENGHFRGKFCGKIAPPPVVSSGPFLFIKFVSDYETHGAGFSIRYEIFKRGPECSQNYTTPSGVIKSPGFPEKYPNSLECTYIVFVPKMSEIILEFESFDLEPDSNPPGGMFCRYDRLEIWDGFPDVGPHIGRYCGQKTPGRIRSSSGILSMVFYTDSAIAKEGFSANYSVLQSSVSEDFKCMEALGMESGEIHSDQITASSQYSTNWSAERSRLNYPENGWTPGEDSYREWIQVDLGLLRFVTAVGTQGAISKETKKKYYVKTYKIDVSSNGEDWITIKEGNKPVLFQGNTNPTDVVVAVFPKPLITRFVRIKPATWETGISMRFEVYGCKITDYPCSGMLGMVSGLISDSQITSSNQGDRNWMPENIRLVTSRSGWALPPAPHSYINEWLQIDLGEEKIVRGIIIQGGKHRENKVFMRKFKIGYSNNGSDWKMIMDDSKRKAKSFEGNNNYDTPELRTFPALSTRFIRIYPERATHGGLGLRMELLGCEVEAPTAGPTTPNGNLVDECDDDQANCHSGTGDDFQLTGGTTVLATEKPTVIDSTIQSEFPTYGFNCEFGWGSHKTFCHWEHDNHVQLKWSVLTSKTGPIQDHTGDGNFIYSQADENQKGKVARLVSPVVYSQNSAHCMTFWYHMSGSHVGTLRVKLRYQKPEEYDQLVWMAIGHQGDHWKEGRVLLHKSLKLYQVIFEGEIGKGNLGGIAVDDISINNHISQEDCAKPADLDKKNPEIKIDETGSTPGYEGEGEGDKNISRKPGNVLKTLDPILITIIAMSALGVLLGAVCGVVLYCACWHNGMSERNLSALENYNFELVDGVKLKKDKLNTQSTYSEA

For the molecule “mouse monoclonal 60.11 anti-gC1qR/p32 antibody”, the reduction of LyP-1 binding in assay [1] was determined as 50%. The molecule further showed a reduction of LyP-1 phage binding in [2] of 90%.

B1: FITC conjugated LyP-1 peptide (peptide)
peptide: CGNKRTRGC
modifications: disulfide 1-9 (inferred); also: FITC conjugated, position not given here
notes: Used at 10 uM on cells at 4 C; also called FITC-LyP-1
Take B1: the binding result in assay [3] is listed as “binds”.

B2: biotinylated CRV peptide (peptide)
peptide: CRVRTRSGC
modifications: disulfide 1-9 (inferred); also: biotinylated, site not given here
notes: Negative control in the pull-down; also called control peptide
On to B2, for which the binding result in [4] is given as “no binding”.
With CRGDK [CRGDK fragment], in the assay with αv integrins, the fold reduction in affinity (against iRGD) fell in the range of 50 to 150 fold.
Regarding CRGDK (other, also: displayed on T7 phage capsid protein, not shown: T7 phage capsid protein) [CRGDK phage], in assay [5], the “internalization of CRGDK phage into M21 cells” value was 3.5 fold. In addition, the “fold increase in binding upon forced expression of neuropilin-1” value in assay [6] turned out to be 3.5 fold.
As to ARALPSQRSR (also: FITC conjugated, position not given here) [FITC conjugated control peptide ARALPSQRSR], in assay [7], the binding result is given as “no binding (tested: 10 µM)”.

B3: biotinylated CREKA peptide (peptide)
peptide: CREKA
modifications: also: biotinylated, position not given here
notes: as for B2
As to B3, the binding result in [4] is given as “no binding”.

B4: LyP-1 phage (other, not shown: large carriers)
chain: CGNKRTRGC
modifications: cysteine pairing not given here; also: displayed on phage coat protein
notes: Phage displaying the LyP-1 peptide; also called Lyp-1 expressing phage
As to B4, in assay [8], the “fold binding over insertless control phage” value was determined as 60 fold. Also, the “fold binding over control phage” value in [9] came out at 5 fold.
